The source of these data is patent publication US20080167219.

The target in the series is purified human factor X (UniProt P00742).
UniProt P00742, sequence (P00742 whole entry, looked up): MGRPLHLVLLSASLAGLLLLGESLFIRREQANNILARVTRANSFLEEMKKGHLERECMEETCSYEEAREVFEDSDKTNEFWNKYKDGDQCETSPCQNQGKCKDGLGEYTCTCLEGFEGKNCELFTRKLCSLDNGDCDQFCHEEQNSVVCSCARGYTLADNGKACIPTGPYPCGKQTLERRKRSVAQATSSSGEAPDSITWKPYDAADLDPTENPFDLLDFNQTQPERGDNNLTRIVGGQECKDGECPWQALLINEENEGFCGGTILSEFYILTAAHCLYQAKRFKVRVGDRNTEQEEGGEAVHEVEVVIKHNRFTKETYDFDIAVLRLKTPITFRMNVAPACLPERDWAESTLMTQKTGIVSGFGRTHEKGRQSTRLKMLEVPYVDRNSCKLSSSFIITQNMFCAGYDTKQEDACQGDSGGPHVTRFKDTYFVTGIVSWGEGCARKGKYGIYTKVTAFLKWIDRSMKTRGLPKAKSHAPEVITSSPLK

With “recombinant human factor IX IX-1, single alanine replacement at residue 86”, the KM for factor X, with 0.4 nM FVIIIa is 0.0554 µM; the KM for factor X, without FVIIIa is 0.532 µM; the Kcat, with 0.4 nM FVIIIa came to 5.09 s⁻¹; the Kcat, without FVIIIa is 0.000225 s⁻¹. The Vmax of factor Xa generation, with 0.4 nM FVIIIa came to 15.1 nM FXa/min; the Vmax of factor Xa generation, without FVIIIa was determined as 0.14 nM FXa/min; the kcat/KM, with 0.4 nM FVIIIa worked out at 9.3e+07 M⁻¹ s⁻¹; the kcat/KM, without FVIIIa came out at 429 M⁻¹ s⁻¹.

“recombinant wild type human factor IX (IX-7)”: the KM for factor X, with 0.4 nM FVIIIa is 0.054 µM; the KM for factor X, without FVIIIa was 0.757 µM; the Kcat, with 0.4 nM FVIIIa was 14.2 s⁻¹; the Kcat, without FVIIIa is 0.000262 s⁻¹. Further, the Vmax of factor Xa generation, with 0.4 nM FVIIIa was 27.8 nM FXa/min; the Vmax of factor Xa generation, without FVIIIa is 0.16 nM FXa/min; the kcat/KM, with 0.4 nM FVIIIa stood at 2.64e+08 M⁻¹ s⁻¹; the kcat/KM, without FVIIIa was found to be 353 M⁻¹ s⁻¹.
